# Results reported in paper PMC5651886.
# Target: pre-fusion RSV F DS-Cav1 (human respiratory syncytial virus (hRSV A strain))
# Assay: SEC; UPLC on a BEH200 size exclusion chromatography column (Waters Acquity UPLC); final purified protein after thrombin cleavage, 10 mM potassium phosphate pH 7.2
substance,measurement,value
pre-fusion RSV F DS-Cav1 (natural protein),stoichiometry N,3
